This passage reports Ka results from PMC3649970, “A Unique Spumavirus Gag N-terminal Domain with Functional Properties of Orthoretroviral Matrix and Capsid” (PLoS Pathogens, 2013).

Sequences and labels used below:
B1: PFV-Gag-NtD (amino terminal domain of Prototypic Foamy Virus Gag, residues 1-179) [Prototypic foamy virus (PFV)] / PFV Env leader peptide residues 1-20 [Prototypic foamy virus (PFV)] (parent)
chain 1: MASGSNVEEYELDVEALVVILRDRNIPRNPLHGEVIGLRLTEGWWGQIERFQMVRLILQDDDNEPLQRPRYEVIQRAVNPHTMFMISGPLAELQLAFQDLDLPEGPLRFGPLANGHYVQGDPYSSSYRPVTMAETAQMTRDELEDVLNTQSEIEIQMINLLELYEVETRALRRQLAERS
chain 2: MAPPMTLQQWIIWKKMNKAH

In this experiment the parent is B1. The experiment is described as follows: sedimentation velocity analytical ultracentrifugation. The following applies: with PFV Env leader peptide residues 1-20 [Prototypic foamy virus (PFV)]; 75 µM equimolar mixtures of Gag-NtDs with Env(1-20); read off a plot.
Consider chain 1 L21N, for which the Ka is 0.3 10^5 M^-1.
As for chain 1 L21S, the figure is 0.29 10^5 M^-1.
As for chain 1 V14S V18S, the figure is 0.18 10^5 M^-1; as for chain 1 V18S, 0.6 10^5 M^-1.
As for chain 1 V18S L21S, the figure is 0.16 10^5 M^-1; as for chain 1 V14S L21S, 0.07 10^5 M^-1; as for chain 1 L17S, 0.71 10^5 M^-1.
Take chain 1 N29Q: the Ka was 1.4 10^5 M^-1.
As for chain 1 V14S, the figure is 0.51 10^5 M^-1.
